Test [1] concerns the target Entamoeba histolytica Phosphoserine aminotransferase (Entamoeba histolytica). The experiment in a line: cross-linking; glutaraldehyde cross-linking of EhPSAT incubated at pH 9, 8, 7 and 6, analysed on 10% SDS-PAGE.
The target is the same in test [2]. The experiment in a line: SEC; Superdex 200 10/300 GL column, EhPSAT at pH 6, 7, 8 and 9; calibrated with ferritin, aldolase, conalbumin and ovalbumin; also run with 200 mM NaCl or NaF. A general note: In gel filtration, larger molecules generally elute earlier.

For “Entamoeba histolytica Phosphoserine aminotransferase (enzyme)”, the stoichiometry N in test [1] and in test [2] was 2 throughout.
